Paper PMC8906434

Biological target: PB2-C (amino acids 247 to 736) from influenza A/Vietnam/1203/2004 (H5N1) virus (influenza A/Vietnam/1203/2004 (H5N1))
Experiment: SEC + other: SAXS

Substance: Rab11a_(1-173) (truncated Rab11a, GST tag removed) (from UniProt P62491 1-173) (domain or fragment)
- stoichiometry N: 1
